# Laboratory results taken from the DeepSol protein solubility set.
# Test: soluble on expression in E. coli; label from the status in PepcDB or PDB records
row,Sequence,soluble on expression in E. coli
1,MKLANTKGERKLEQKLYYTDAYKQDFTTKVIKQDYDKDGNLYVILNETVFYPTGGGQPHDTGTLNGIAVLGVEEVDEEIRHFIAEQLHTEEVEGKINWERRFDHMQQHAAQHILSAAFWDYFNIPTIGFHLGKETVTIDLETENLHAETVEKAVQIANKIVFENHPILIKWMNLEEAKTLPLRKEPTMTENIRVVMIENFDYNGCGGTHPKRTGEVGPIQVLGWERNKGGIRLTFIAGWRTLKLMGQQQQIMKDVSKQLNSSEADIPAKVAQLLTSQKENKKAMQTMTEKLLYTEANELLQQPTKIHAGILISKVFTNRSMQEIAKLSAIITEQQEHAITYFVIENEDKLQCILACGKTVTLDMNALLKEALPTIEGKGGGNKKSARGGGKAMMSGDEFLNQLISSLQSAV,not soluble
2,MKLASPKPFTFEGGDRAVLLLHGFTGNSADVRMLGRFLEKKGYTCHAPIYKGHGVPPEELVHTGPEDWWQDVTEAYQLLKDKGFEKIAVVGLSLGGVFSLKLGYTVPVLGVVPMCAPMYIKSEETMYQGILAYAREYKKREQKSPEQIEQEMLEFQKTPMNTLKALQQLIADVRNNVDMIYVPTFVVQARHDEMINTDSANIIYNGVESTLKDIKWYEDSTHVITLDKQRDELHEDVYNFLEQLDW,not soluble
3,MKLDFSSGAKPLWSQMANIIKKRIEDGEYEIGCTLPSEMSFADEFNVSRITVRQALNRLMTDGYILRQRGKGTIVKRDKTSFSTRMQSSFKQLQDEYDKTTKTLISVNNVKASEDVAEVFDINPGDNVIMLERSVESKGKIITIYHNYISPKVGASLKDDFTGSFYKYLEMKGFYITSAKEVISAKISTAKDKEVFGFSNDRAMLLKTKYGYSDGVPVEITYGTYIADDYNIVIELV,not soluble
4,MKLEDLPKYYSPKSPGLTDASASTSKDALSITDVMAAQGMTQNRAEMGFSAFLGKMGISMNDRARATELLADYALSRCDRVAALRKLPAEIKPVVMRIMASYAFEDYARSAASKKQCPCCYGEKFIESVVFTNKVQYPDGKPPVWAKCTKGVYPSYWEEWKKVREVVKVACPECGGKGEVSTACKDCRGRGVAIHREESVKRGMPVIRDCQRCGGRGYERLPSTEVFNAICEVTNQITRASWEKTVKKFYDALVTRFDIEEAWAERQLKKVTR,not soluble
5,MKLHEHQAKEIFAKYGIPVPEGKVAFSLKEAKEVAEELGEFPLVVKAQIHCGGRGKAGGVKIVKDMDELEKAVESLLGKVLKTFQCPDGKPVNRVLIEKATNIDKEYYLAITLDRSKSKPVIMASAAGGMEIEEIVKENPEAIIIETIDPELGLMPYQARELAFKLNLPVKEFASIALKLYQIYSDLDASLVEINPLVLTKEGNLIALDAKLDIDDNALFRHKDLEEMEDETQLPQLEVEAKKYGLNYIKLNGNIGCMVNGAGLAMATMDIIKLAGGEPANFLDVGGGANVEQIANAFRILMADPDVKAVFINIFGGILRVDRLAQGLIEASKMVELRVPIVARLEGTNVEEGKRMLQESGLNFIIAEDMWDGAKKAVEIANKQS,soluble
6,MKLIVAVVQDQDSNRLLKTLTDHNFRVTKLATTGGFLKSGNTTFMIGVEDIRVNKALSLIKENGQKRDQMIAPVSPMGGNADSYVPYPVEVEVGGATVFVLPVDEFHQFLEHHHHHH,soluble
7,MKLIVKVFPEITIKSPPVRKKFIRQLGKNIRTVLRELDADIVVGGVWDNLEVETRLTDPKVLQGIRDRLSCMPGIANFLQVAEYPLGDMDDVVAKCKLHYADLLPGTMFSVRCKRAGRHDFSSMDVEKYVGSQLRMQCGAAGIELKKPDLVVRMEIRDQRLFVVHDQHKGMGGYPLGALEQTLVLMSGGFDSTVAAYQIMRRGLMAHFCFFNLGGRAHELGVMEVAHFIWKKYGSSQRVLFVSVPFEEVLGEILQKVDNSHMGVVLKRMMLRAASAVADRLEIDVLVTGEAISQVASQTLPNLSLIDAATDKLVLRPLVATHKQDIVDLATEIGTADFARHMPEYCGVISVNPKTNAKRNRVEYEEQQFDMAILEQALERAKLVSIDRVIDDLSRNIDIEEVSQALAGQVIIDIRHPDAQEDQPLQVPGVEIQTLPFYALNSRFKALDDTRQYLLYCDKGVMSRLHAHHLLSEGHANVRVYRPS,not soluble
8,MKLKELVKQFIPMNYWNTRRKASIIRQQGKVADFWAPILKAYYNGEIERYSLKPKKKLGTQKVIWQYWGQGIDKDELPEIIQICFDSVDRNKNDYQVIRLTDITISEYIDLPDFVWRKREYVQFTRTFFSDLLRVALLSTYGGVWLDATILLTGSIPAVYEKTDFFMYQRSDEEKNKKYWENVYAYYFGWEPNFKVRMLSSILFAQKESEIISTLTDLLLYFWKTQDSLPDYFCFQILFNELVANYRPAENCPIVNDCIPHIIQTKINGTYDDVSFEEALELSNIHKMTYFDAAAMIRLKMVLRLARNALEHHHHHH,soluble
9,MKLKLYLIPLLASGIILSACSSTTSQVISSLSSAQKYFEANKGELNKNNVINILKDGYNSDPNKTVNALLAGWKYTLMDQKLLENNLDPSRFKNTFGPNKNKDDVTPNISEKGLFLNETFTGLGSQIAEVFNVQKQIVSGFSYSWTSPKSFKVNIHIKMEGMINEKSKETIKSFLSNKDSNGSNSVEESEYTGDKAKFTADFIFSYTPPTGGTRSLTDKSFDVITNMINFPADVKIDVNTSHNKLNELLEKNDQVKRMKSRTFNGRNIDLLPFFYYALL,soluble
10,MKLLFTSAFTQMFGYSNHMDQASNCQSTRNKIIKMMKKEEFPSGFQVPLHYPKYSKSDYEVMDDLRLDLLLKQYGFSFEGSLEDKRVFAIESFLWPDQL,soluble
11,MKLLRYGPVGEERPALLDELGEIRDLSAHIEDISGKFLLPATLYKLRQLDSASLPLVRGEQRLGACVGHVGKFICVGLNYADHAAETGAEIPQEPVIFNKWTSAIIGPNDDIEIPRNSVKTDWEVELGVVIGTGGRYIGEANAMSYVAGYCVVNDISEREFQLEHGGTWDKGKGCDTFGPIGPWLVTRDEIPDPHQLGLWLDVDGRRYQNGSTRTMIFKIPQIISYLSRFMSLQSGDVISTGTPPGVGLGQKPPVYLHAGQIMRLGIEGLGEQCQKTIQA,not soluble
12,MKLLSSIEQACDICRLKKLKCSKEKPKCAKCLKNNWECRYSPKTKRSPLTRAHLTEVESRLERLEF,soluble
13,MKLNAIHHVAIIVSDYHLSKDFYVNKLGFEIIRENYRPDKHDYKLDLSCGRIELEIFGKVTSDPNYQAPPKRVSEPEFKSEACGLRHLAFRVTNIESYVDDLKSLGIPVEPIRHDDYTGEKMTFFFDPDGLPLELHE,not soluble
14,MKLNLITVSLATLVAAGAFPAHAGPQAHVVCGYHHTLGDDAIMMFGKANQAMWHDFFGNTHTDAVSTYQTLRAQPDTTCDNKADSSAYWAPSMKLPDGEIVNPAYQKTYYQSTNVAQYPLHPFPAGLELLAGDHHGTGPSSAITFLCANGKGYTNKVGEICGLRKAGDAVQFNIGIAFPNCWDGVNLKPTHSHNNAIYADHGKCSADYPVKIPTVNMNIAWVLPQISSLDTSKVELSMDPVMHGETREERWGSLYTAHADFMNGWTEDGAQFMTDLCMNQGLDCGTTVPYAYSKAEENTWVSSEDDKPHASVDTLYVQDDWTNGGRTQHPETLTLVKFKIPPLPANMDASLFKYRIRLFGGKTEANGADQIFFYPTSSDWHVSTVSWNNKPAINYRSDAVLYLDHSHEYRMVDVDKAVRKALAEGKTEISWYIGGDRQGNHYDFTPADSKQSLVLMLTGFKKTPELLEHHHHHH,not soluble
15,MKLPLFPLPICLLPEGYTQLRIFEPRYKRLVAESLKSGDGFGLCMTSEEVNTLYPIGTLVHIIDFETLSDGMLGVSIEGKQRFILGDISVESDGLKRAQINLIDNWPAAPIHENEHYLSDMLQNILKEYPKHLQQYQAAQFDDIAWVCQRWLEILPIRSAEKYTCINALDHQLTLDLLRTVIKLEHHHHHH,soluble
16,MKLSKDTIAILKNFASINSGILLSQGKFIMTRAVNGTTYAEANISDEIDFDVALYDLNSFLSILSLVSDDAEISMHTDGNIKIADTRSTVYWPAADKSTIVFPNKPIQFPVASVITEIKAEDLQQLLRVSRGLQIDTIAITNKDGKIVINGYNKVEDSGLTRPKYSLTLTDYDGSNNFNFVINMANMKIQPGNYKVMLWGAGDKVAAKFESSQVSYVIAMEADSTHDF,soluble
17,MKLSKDTTALLKNFATINSGIMLKSGQFIMTRAVNGTTYAEANISDVIDFDVAIYDLNGFLGILSLVNDDAEISQSEDGNIKIADARSTIFWPAADPSTVVAPNKPIPFPVASAVTEIKAEDLQQLLRVSRGLQIDTIAITVKEGKIVINGFNKVEDSALTRVKYSLTLGDYDGENTFNFIINMANMKMQPGNYKLLLWAKGKQGAAKFEGEHANYVVALEADSTHDF,soluble
18,MKLTLMFREYCSLCHKMRDELKPFQDEYGFGLEVVDVDENPVLEEKYNELVPVLLAGDEEICHWFLDEDRLKQFLER,not soluble
19,MKLTPEMLTGKSREHLVNLPTTHSSNHFLQTQAVQAFQALQQSAAKNGFNLQPASSFRDFERQQLIWNSKFKGERKVHDDAGKALDLNQLDDWQKCQAILRWSALLRLVVIIGERKWIFLILIFCHEVNLYNWSLGNMKKAATSLN,not soluble
20,MKLVVCSESDTAGQNIKDNLLTFADFEEKDVGEFKLYLSDEFYIAETKERLIYADHIDEKLAKYIDFEEILFASRHSSKDGRKIFTVHVSGNVGTADFGGKPYSLAKPSPQTMKNYVLALRERLDRKPEFEFTMEVTHHGPSEISKPSAFYEIGSTEEEWKDREAAEVVAEAMLDAIRAEKMDWNVAVGVGGTHYAPRQTEIMLTTTFTFGHNFAKYTFEHLTAEFLVKAVKLSEAEYIIIDEKSVNSAVKKIVNEAAEVAGVEVLKSKKVKKDFRLV,soluble
21,MKMDTGALTFQQKIYWLVKQIPLGRVATYGQIAALCGWPRHGRYVGYALYRVAPNSDIPWHRVVNAQGKISYAPQRRGTDELQRWRLAAEGIIFTAGLEHHHHHH,not soluble
22,MKNNIRFDLSDYLIHFFRDVNLETGSHIYLPEHCGFNNQHHACFIDAKYLLRLSLRSHKIFSSWSYRNGQRTVYGDSPVVCFTDMPIAAYLETGVRRLERNEKIGLYAIVLPKEQMFNYGARPVIYGLDQHNNARCSQGRNGERILDETALPLIEQYRYVTYVPGKIDWTHEREWRWPYRGDINNFLNHIKEYGIPENIESTPGFDFRSSEISGAGIIVPFAEDIPTVAHDILTLIDRGVIGRNTFKFIIAVESLQSWTQLSEPGALLSCINDNTFEFESFFDLSASKVKNYADSINDYVSELYSKKDFLNDSYAMEFGNAWVWIHDNQSQVVRALLQAGMIKVNKEGRYLLDVNLASVDWPLRRKEAFASHVAGWLKHRFDIEAGRYSVRGKDDYDAIPSYETPLKDQHPFYNHTVNVDW,not soluble
23,MKNNKVLVVVGPTAVGKTALGIDLAIKFNGEIISGDSQQVYQGLDIGTAKVTMAEQAQVPHHLIDVRKWTENFSVHDFVIEANQLIKEILDQGKVPIIVGGTGLYIQSLIEGYHLGGQENHEEMMKLREELSLLSDEELFAKVIKINPDISELNRRRAIRFLELQTFGSQDENLGSDYDFLLIGLNADRKVLYDRINQRVDQMMREGLLDEARTLYEQAPEVQAAKGIGYKEFFPYFSGDISLEEAVELVKRNSRRYAKRQLTWFKNRMSVEFEDVFSKNYPEPIFDKVTQFLNLEHHHHHH,not soluble
24,MKNPCNVIAIIGKPRDQQAIQTHKELYEWLTSEGYKVFIDDRLAAILDEIPQNHFASLVELGKNADLAIVVGGDGNMLGAARILSRFDVPVIGVNRGNLGFLTDLNPDDFQAALKAVLAGEYIEEERFLLEAEVHRHGQIKSHNAALNEAVLHPGQIAHMIEFEVYIDESFAFSLRADGLIVSTPTGSTAYSLSGGGPILSPSLNAISLVPMFPHTLSSRPLVVDGKRRIKLIVSPENRGTQEVSCDGQVSLPVSPGDEIHIYQSPNVLKLIHPKDYSYYHVLRNKLGWSSKLFMAGDPLEHHHHHH,soluble
